Data: patent US20200048345A1 (INNATE PHARMA, published 2020)

Assays:
human FcRn = molecular target: T1, human FcRn (human, UniProt P55899 24-297; P61769 21-119, limits assumed); assay: SPR, recombinant human FcRn immobilized on chip; Steady State
T1 construct: also called recombinant FcRn proteins

[1] = molecular target: T2, Human NKp46 recombinant protein (human, UniProt O76036 22-258, limits assumed); assay: SPR (Biacore T100), captured on Protein-A chip, recombinant human NKp46 6.25-400 nM, 1:1 kinetic model
T2 construct: Soluble analyte in SPR; also called recombinant human NKp46 proteins
Procedure: SPR measurements were performed on a Biacore T100 apparatus (Biacore GE Healthcare) at 25° C. In all Biacore experiments HBS-EP+ (Biacore GE Healthcare) and NaOH 10 mM served as running buffer and regeneration buffer respectively. Sensorgrams were analyzed with Biacore T100 Evaluation software. Protein-A was purchased from (GE Healthcare). Human NKp46 recombinant proteins were cloned, produced and purified at Innate Pharma.
Protein-A proteins were immobilized covalently to carboxyl groups in the dextran layer on a Sensor Chip CMS. The chip surface was activated with EDC/NHS (N-ethyl-N′-(3-dimethylaminopropyl) carbodiimidehydrochloride and N-hydroxysuccinimide (Biacore GE Healthcare)). Protein-A was diluted to 10 μg/ml in coupling buffer (10 mM acetate, pH 5.6) and injected until the appropriate immobilization level was reached (i.e. 2000 RU). Deactivation of the remaining activated groups was performed using 100 mM ethanolamine pH 8 (Biacore GE Healthcare).
Monovalent affinity study was conducted following a regular Capture-Kinetic protocol recommended by the manufacturer (Biacore GE Healthcare kinetic wizard). Seven serial dilutions of human NKp46 recombinant proteins, ranging from 6.25 to 400 nM were sequentially injected over the captured Bi-Specific antibodies and allowed to dissociate for 10 min before regeneration. The entire sensorgram sets were fitted using the 1:1 kinetic binding model.

T2 sequence (O76036 22-258 limits assumed): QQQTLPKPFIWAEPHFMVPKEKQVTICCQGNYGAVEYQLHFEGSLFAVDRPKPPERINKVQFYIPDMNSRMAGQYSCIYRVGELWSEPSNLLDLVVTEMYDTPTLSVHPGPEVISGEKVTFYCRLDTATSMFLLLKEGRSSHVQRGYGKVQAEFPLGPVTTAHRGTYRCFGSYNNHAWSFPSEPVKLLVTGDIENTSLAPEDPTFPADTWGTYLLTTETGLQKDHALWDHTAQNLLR
T1 sequence (P55899 24-297 limits assumed, chain 1 of 2): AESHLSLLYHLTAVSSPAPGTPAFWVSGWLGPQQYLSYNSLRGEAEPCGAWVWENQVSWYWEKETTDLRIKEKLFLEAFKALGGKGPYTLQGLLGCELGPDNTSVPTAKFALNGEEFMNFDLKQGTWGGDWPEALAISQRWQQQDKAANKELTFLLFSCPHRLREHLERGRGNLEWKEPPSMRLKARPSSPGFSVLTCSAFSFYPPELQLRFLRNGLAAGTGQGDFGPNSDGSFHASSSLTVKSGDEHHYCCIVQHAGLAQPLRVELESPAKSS
T1 sequence (P61769 21-119 limits assumed, chain 2 of 2): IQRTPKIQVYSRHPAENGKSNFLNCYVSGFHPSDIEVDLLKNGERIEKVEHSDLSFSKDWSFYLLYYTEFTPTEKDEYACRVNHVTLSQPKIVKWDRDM

B1: CD19-F9A-NKp46-3 (bispecific antibody, human IgG1, kappa)
chain 1: not shown
chain 2: DIVMTQSPATLSVTPGDRVSLSCRASQSISDYLHWYQQKSHESPRLLIKYASQSISGIPSRFSGSGSGSDFTLSINSVEPEDVGVYYCQNGHSFPLTFGAGTKLELKASTKGPSVFPLAPSSKSTSGGTAALGCLVKDYFPEPVTVSWNSGALTSGVHTFPAVLQSSGLYSLSSVVTVPSSSLGTQTYICNVNHKPSNTKVDKRVEPKSCDKTH
chain 3: not shown
notes: Heterotrimer, monomeric Fc with tandem CH3, N297S, wild-type hinge cysteines
Kd (human FcRn): 858 nM
Kd [1]: 32 nM
koff [1]: 0.00669 s⁻¹
kon [1]: 207000 M⁻¹ s⁻¹
